Results from patent US20230365658A1 (LAWRENCE LIVERMORE NATIONAL SECURITY, published 2023).
Substitutions are numbered along the chain they refer to.

B1: mAb_RBD_2130_FAB_20211231_00199 (antibody, V domains shown)
VH: EVQLVESGGGLVKPGGSLRLSCAASGFTFRDVWMSWVRQAPGKGLEWVGRIKSKIDGGTTDYAAPVKGRFTISRDDSKNTLYLQMNSLKTEDTAVYYCTTAGSYYYDTVGPGLPEGKFDYWGQGTLVTVSS
VL: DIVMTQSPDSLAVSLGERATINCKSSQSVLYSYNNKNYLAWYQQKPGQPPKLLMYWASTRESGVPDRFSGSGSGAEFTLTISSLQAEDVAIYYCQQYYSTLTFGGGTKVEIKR
B2: mAb_v2130Vanderbilt_184_20220114_00112 (antibody, V domains shown)
VH: B1 VH with G112E
VL: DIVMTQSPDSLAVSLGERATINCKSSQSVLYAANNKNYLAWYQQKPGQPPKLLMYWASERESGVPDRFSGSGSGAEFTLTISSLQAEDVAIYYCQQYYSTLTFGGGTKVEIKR
B3: v2130_upsample_20220121_00354 (antibody, V domains shown)
VH: B1 VH with V109R, G112E
VL: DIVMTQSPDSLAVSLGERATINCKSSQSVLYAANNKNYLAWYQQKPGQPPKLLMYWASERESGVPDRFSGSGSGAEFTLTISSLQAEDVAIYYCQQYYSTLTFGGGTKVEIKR
B4: v2130_upsample_20220121_00298 (antibody, V domains shown)
VH: B1 VH with I55E, Y106H
VL: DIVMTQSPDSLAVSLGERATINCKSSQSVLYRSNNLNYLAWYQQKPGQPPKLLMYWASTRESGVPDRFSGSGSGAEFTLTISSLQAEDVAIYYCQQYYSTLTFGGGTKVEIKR
B5: mAb_v2130JustStableLines_20220111_00002 (antibody, V domains shown)
VH: B1 VH with I55D
VL: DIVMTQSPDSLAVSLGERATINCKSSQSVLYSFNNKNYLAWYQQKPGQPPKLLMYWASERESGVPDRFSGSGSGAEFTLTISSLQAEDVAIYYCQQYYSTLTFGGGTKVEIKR
notes: also called LLNL010
B6: mAb_v2130Vanderbilt_184_20220114_00111 (antibody, V domains shown)
VH: B1 VH with G112E
VL: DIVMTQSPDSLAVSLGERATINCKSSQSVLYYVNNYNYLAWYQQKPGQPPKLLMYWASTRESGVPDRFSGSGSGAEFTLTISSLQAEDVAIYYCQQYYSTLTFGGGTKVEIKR
notes: also called LLNL198
B7: v2130_upsample_20220121_00009 (antibody, V domains shown)
VH: B1 VH with Y106D, F118I
VL: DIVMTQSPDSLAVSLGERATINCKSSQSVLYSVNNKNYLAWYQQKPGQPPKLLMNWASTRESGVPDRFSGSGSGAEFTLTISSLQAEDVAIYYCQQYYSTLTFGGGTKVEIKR

Assays:
[1] = biological target: T1, SARS-CoV-2 spike (S) glycoprotein, Omicron BA.1 (SARS-CoV-2, UniProt P0DTC2 14-1273); experiment: cell-based or functional assay
[2] = biological target: T2, SARS-CoV-2 spike (S) glycoprotein, Omicron BA.2 (SARS-CoV-2, UniProt P0DTC2 14-1273); experiment: cell-based or functional assay
[3] = biological target: T3, SARS-CoV-2 spike (S) glycoprotein, Omicron BA.4 (SARS-CoV-2, UniProt P0DTC2 14-1273); experiment: cell-based or functional assay
[4] = biological target: SARS-CoV-2 spike (S) glycoprotein, Delta (B.1.617.2) (SARS-CoV-2, UniProt P0DTC2 14-1273); experiment: cell-based or functional assay
[5] = biological target: T1, SARS-CoV-2 spike (S) glycoprotein, …; experiment: cell-based or functional assay; remark: listed apart in the source
[6] = biological target: SARS-CoV-2 spike (S) glycoprotein, Omicron BA.5.5 (SARS-CoV-2, UniProt P0DTC2 14-1273); experiment: cell-based or functional assay
[7] = biological target: T4, SARS-CoV-2 spike (S) glycoprotein, Omicron BA.1.1 (SARS-CoV-2, UniProt P0DTC2 14-1273); experiment: cell-based or functional assay
[8] = biological target: T4, SARS-CoV-2 spike (S) glycoprotein, …; experiment: cell-based or functional assay; remark: listed apart in the source
[9] = biological target: SARS-CoV-2 spike (S) glycoprotein, Omicron BA.5 (SARS-CoV-2, UniProt P0DTC2 14-1273); experiment: cell-based or functional assay
[10] = biological target: T3, SARS-CoV-2 spike (S) glycoprotein, …; experiment: cell-based or functional assay; remark: listed apart in the source
[11] = biological target: T5, SARS-CoV-2 spike (S) glycoprotein, D614G (SARS-CoV-2, UniProt P0DTC2 14-1273); experiment: cell-based or functional assay
[12] = biological target: SARS-CoV-2 spike (S) glycoprotein, Omicron BA.2.75 (SARS-CoV-2, UniProt P0DTC2 14-1273); experiment: cell-based or functional assay
[13] = biological target: T1, SARS-CoV-2 spike (S) glycoprotein, …; experiment: cell-based or functional assay; remark: listed apart in the source
[14] = biological target: T2, SARS-CoV-2 spike (S) glycoprotein, …; experiment: cell-based or functional assay; remark: listed apart in the source
[15] = biological target: T4, SARS-CoV-2 spike (S) glycoprotein, …; experiment: cell-based or functional assay; remark: listed apart in the source
[16] = biological target: SARS-CoV-2 spike (S) glycoprotein, Omicron BA.2.12.1 (SARS-CoV-2, UniProt P0DTC2 14-1273); experiment: cell-based or functional assay
[17] = biological target: T3, SARS-CoV-2 spike (S) glycoprotein, …; experiment: cell-based or functional assay; remark: listed apart in the source
[18] = biological target: T5, SARS-CoV-2 spike (S) glycoprotein, D614G; experiment: cell-based or functional assay; remark: listed apart in the source
[19] = biological target: T1, SARS-CoV-2 spike (S) glycoprotein, …; experiment: cell-based or functional assay; remark: listed apart in the source
[20] = biological target: T2, SARS-CoV-2 spike (S) glycoprotein, …; experiment: cell-based or functional assay; remark: listed apart in the source
[21] = biological target: T4, SARS-CoV-2 spike (S) glycoprotein, …; experiment: cell-based or functional assay; remark: listed apart in the source
[22] = biological target: T6, SARS-CoV-2 Spike-RBD, Delta (SARS-CoV-2, UniProt P0DTC2 319-541); experiment: Gyros full-curve immunoassay, mAb titrated on RBD, relative binding (FI)
T6 construct: domain: RBD; also called Delta RBD

[23] = biological target: T6, SARS-CoV-2 Spike-RBD, Delta; experiment: Gyrolab immunoassay, IgG titrated on Spike-RBD, relative binding (FI)

Binder | pseudovirus neutralization IC50 [1] | pseudovirus neutralization IC50 [2] | pseudovirus neutralization IC50 [8] | normalized pseudoneutralization IC50 [17] | normalized pseudoneutralization IC50 [18] | normalized pseudoneutralization IC50 [19] | normalized pseudoneutralization IC50 [20] | normalized pseudoneutralization IC50 [21] | EC50 (read off the curve) [22] | further results
B1 | 556 ng/mL | 1.11 ng/mL | – | – | – | – | – | – | – | –
B2 | 1.14 ng/mL | 0.852 ng/mL | 3.21 ng/mL | 0.779 ng/mL | 4.08 ng/mL | 2.56 ng/mL | 0.985 ng/mL | 6.25 ng/mL | – | authentic virus neutralization IC50 (FRNT) [3]: 7.47 ng/mL; authentic virus neutralization IC50 (FRNT) [4]: 33.9 ng/mL; authentic virus neutralization IC50 (FRNT) [5]: 5.53 ng/mL; authentic virus neutralization IC50 (FRNT) [6]: 5.29 ng/mL; authentic virus neutralization IC50 (FRNT) [7]: 39.2 ng/mL; authentic virus neutralization IC50 (FRNT, Vero-TMPRSS2) [9]: < 10 ng/mL; authentic virus neutralization IC50 (FRNT, Vero-TMPRSS2) [10]: < 10 ng/mL; authentic virus neutralization IC50 (FRNT, Vero-TMPRSS2) [11]: < 10 ng/mL; fold improvement of pseudoviral neutralization over COV2-2130 [12]: 90 fold; pseudoviral neutralization IC50 [12]: 1.9 ng/mL; authentic virus neutralization IC50 (FRNT, Vero-TMPRSS2) [13]: < 10 ng/mL; authentic virus neutralization IC50 (FRNT, Vero-TMPRSS2) [14]: < 10 ng/mL; authentic virus neutralization IC50 (FRNT, Vero-TMPRSS2) [15]: < 10 ng/mL; authentic virus neutralization IC50 (FRNT, Vero-TMPRSS2) [16]: < 10 ng/mL
B3 | 0.178 ng/mL | 0.515 ng/mL | 0.475 ng/mL | – | – | – | – | – | ~400 ng/mL | authentic virus neutralization IC50 (FRNT) [3]: 3.04 ng/mL; authentic virus neutralization IC50 (FRNT) [4]: 6.23 ng/mL; authentic virus neutralization IC50 (FRNT) [5]: 4.23 ng/mL; authentic virus neutralization IC50 (FRNT) [6]: 2.82 ng/mL; authentic virus neutralization IC50 (FRNT) [7]: 9.65 ng/mL
B4 | 626 ng/mL | 566 ng/mL | – | – | – | – | – | – | – | –
B5 | 339 ng/mL | 1.15 ng/mL | – | 4.69 ng/mL | 4.92 ng/mL | 34.8 ng/mL | 1.47 ng/mL | > 10000 ng/mL | ~2000 ng/mL | EC50 (read off the curve) [23]: ~2000 ng/mL
B6 | 118 ng/mL | 0.0392 ng/mL | 603 ng/mL | 34.3 ng/mL | 3.02 ng/mL | 32 ng/mL | 0.162 ng/mL | 4030 ng/mL | ~1000 ng/mL | EC50 (read off the curve) [23]: ~1000 ng/mL
B7 | – | – | – | – | – | – | – | – | – | binding result [22]: no binding (tested: about 150 ug/ml)
